According to paper doi:10.1101/2024.04.30.591959:

Target: T1, human propionyl-CoA carboxylase β subunit (human (endogenous in Expi 293F)), P05166
T1 chain: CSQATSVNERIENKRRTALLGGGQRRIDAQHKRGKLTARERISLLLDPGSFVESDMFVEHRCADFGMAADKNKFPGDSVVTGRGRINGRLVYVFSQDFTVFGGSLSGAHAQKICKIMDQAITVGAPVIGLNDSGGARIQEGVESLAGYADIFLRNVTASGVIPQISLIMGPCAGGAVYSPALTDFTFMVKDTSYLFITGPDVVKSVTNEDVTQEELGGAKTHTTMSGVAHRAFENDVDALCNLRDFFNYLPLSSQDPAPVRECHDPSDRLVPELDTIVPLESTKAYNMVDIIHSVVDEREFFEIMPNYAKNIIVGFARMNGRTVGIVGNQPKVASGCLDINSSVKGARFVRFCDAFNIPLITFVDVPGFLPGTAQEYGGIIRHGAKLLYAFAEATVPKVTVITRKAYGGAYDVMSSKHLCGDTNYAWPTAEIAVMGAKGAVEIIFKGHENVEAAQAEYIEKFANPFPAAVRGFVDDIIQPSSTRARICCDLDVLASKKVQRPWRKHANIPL
Assay: cryo-EM structure
Conditions: remark: other sources report otherwise

- stoichiometry N: 6
B1: human propionyl-CoA carboxylase β subunit, P05166 29-539 (natural protein)
chain: CSQATSVNERIENKRRTALLGGGQRRIDAQHKRGKLTARERISLLLDPGSFVESDMFVEHRCADFGMAADKNKFPGDSVVTGRGRINGRLVYVFSQDFTVFGGSLSGAHAQKICKIMDQAITVGAPVIGLNDSGGARIQEGVESLAGYADIFLRNVTASGVIPQISLIMGPCAGGAVYSPALTDFTFMVKDTSYLFITGPDVVKSVTNEDVTQEELGGAKTHTTMSGVAHRAFENDVDALCNLRDFFNYLPLSSQDPAPVRECHDPSDRLVPELDTIVPLESTKAYNMVDIIHSVVDEREFFEIMPNYAKNIIVGFARMNGRTVGIVGNQPKVASGCLDINSSVKGARFVRFCDAFNIPLITFVDVPGFLPGTAQEYGGIIRHGAKLLYAFAEATVPKVTVITRKAYGGAYDVMSSKHLCGDTNYAWPTAEIAVMGAKGAVEIIFKGHENVEAAQAEYIEKFANPFPAAVRGFVDDIIQPSSTRARICCDLDVLASKKVQRPWRKHANIPL
